Measured values from patent US20240043504A1 (published 2024).
Changes are numbered by the printed parent chain.

B1: mAb10930 (antibody, V domains shown)
VH: EVQLVESGGGLVQPGRSLRLSCAASGFTFDDYAMYWVRQAPGKGLEWVSGISWNSGSIGYADSVKGRFTISRDNAKNSLYLQMNSLRAADTALYYCAKDKDWNSRGYYYYGMDVWGQGTTVTVSS
VL: not shown
B2: mAb10982 (antibody, V domains shown)
VH: EVQLVESGGGLVQPGGSLRLSCAASGLTVSSNYMSWVRQAPGKGLEWVSVIYSGGTTYYADSVKGRFTISRHNSKNTLSLQMNSLRAEDTAVYYCARGEGANYYGMDVWGQGTTVTVSS
VL: QSVLTQPPSVSGAPGQRVTISCTGSSSNIGTGYDVHWYQQLPGTAPKLLIYGNSNRPSGVPDRFSGSKSGTSASLAITGLQAEDEADYYCQSYDSSLSGYVVFGGGTKLTVLG
B3: mAb10985 (antibody, V domains shown)
VH: EVQLVESGGGLVQPGRSLRLSCAASGFTFDDYAMHWVRQAPGKGLEWVSGISWNRGSIGYADSVKGRFTISRDNAKNSLYLQMSSLRAEDTALYYCAKDGERWDSVVVPSARNGMDVWGQGTTVTVSS
VL: B2 VL with T31A, Y100S, V101Y, G105T, L109V
B4: mAb10986 (antibody, V domains shown)
VH: EVQLVESGGGLVQPGGSLRLSCAASEFTVSSNYMSWVRQAPGKGLEWVSVIYSGGSTFYADSVKGRFTISRDNSKNTLYLQMNSLRAEDTAVYYCARALPYGDLHFDYWGQGTLVTVSS
VL: B2 VL with S54T, G99D, Y100S, V101Y, G105T, L109V
B5: mAb10989 (antibody, V domains shown)
VH: QVQLVQSGAEVKKPGASVKVSCKASGYIFTGYYMHWVRQAPGQGLEWMGWINPNSGGANYAQKFQGRVTLTRDTSITTVYMELSRLRFDDTAVYYCARGSRYDWNQNNWFDPWGQGTLVTVSS
VL: QSALTQPASVSGSPGQSITISCTGTSSDVGTYNYVSWYQQHPGKAPKLMIFDVSNRPSGVSDRFSGSKSGNTASLTISGLQAEDEADYYCSSFTTSSTVVFGGGTKLTVLG
B6: mAb10913 (antibody, V domains shown)
VH: EVQLVESGGGLVQPGGSLRLSCAASGFTFRNYEMNWVRQAPGKGLEWVSYITSSGSTMYYADSVKGRFTISRDNAKNSLYLQMNSLRAEDTAVYYCARDGFYYYYAMDVWGQGTTVTVSS
VL: QSVLTQPPSVSAAPGQKVTISCSGSSSNIGNNYVSWYQQLPGTAPKLLIYDNNKRPSGIPDRFSGSKSGTSATLGITGLQTGDEADYYCGTWDSSLSVGRVFGTGTKVTVLG
B7: mAb10936 (antibody, V domains shown)
VH: QVQLVESGGGVVQPGRSLRLSCAASGFTFRNYGMHWVRQAPGKGLEWVSVIWYDGSNRYYADSVKGRFTISRDTSKNTLYLQMNSLRAEDTAVYYCARDPPITGTTGGDAFDIWGQGTMVTVSS
VL: not shown
B8: mAb11010 (antibody, V domains shown)
VH: QVQLVESGGGVVQPGRSLRLSCAASGFTFSSYGMHWVRQAPGKGLEWVAVISYDGSYKYYADSVKGRFTISRDNSKNTLYLQMNSLRAEDTAVYYCAIDGGTVTTIFDYWGQGTLVTVSS
VL: not shown
B9: mAb10920 (antibody, V domains shown)
VH: QVQLVESGGGVVQPGRSLRLSCAASGFTFSYYGMHWVRQAPGKGLEWVAVIWYDGSNKFYADSVKGRFTISRDNSKNTLYLQMNSLRAEDTAVYYCAAARPGYYYGMDVWGQGTTVTVSS
VL: DIQMTQSPSSLSASVGDRVTITCRASQGISNYLAWFQQKPGKAPNSLIYAASSLQRGVPSKFSGSGSGTDFTLTISSLQPEDFATYYCQQYNSYPRTFGQGTKVEIKR
B10: mAb10923 (antibody, V domains shown)
VH: QVQLVQSGAEVKKPGASVKVSCKASGYTFINYYIHWVRQAPGQGLEWMGWINPNSGGTNYAQKFQGRVTMTRDTSISTAYMELSRLRSDDTAVYYCAIITIFGVVTWFDPWGQGTLVTVSS
VL: not shown
B11: mAb10932 (antibody, V domains shown)
VH: EVQLVESGGGLVQSGGSLRLSCAASGLTVSSNYMSWVRQAPGKGLEWVSVIYSGGSTFYSDSVKGRFTISRHNSKNTLYLQMNSLRAEDTAVYYCARARGDAFDIWGQGTMVTVSS
VL: not shown
B12: mAb11004 (antibody, V domains shown)
VH: QVQLVESGGGVVQPGRSLRLSCVASGFTFSIYGMDWVRQAPGKGLEWVAVISYDGSNKYYADSVKGRFTISRDNSKNTLYLQMNSLRPEDTAVYYCAKDREAAADAFDIWGQGTMVTVSS
VL: DIQMTQSPSSVSASVGDRVTITCRASQGISSWLAWYQQKPGKAPKLLIYAASSLHSGVPSRFSGSGSGTDFTLTISSLQPEDFATYYCQQANSFRLTFGGGTKVEIKR
B13: mAb11002 (antibody, V domains shown)
VH: EVQLVESGGGLVQPGGSLRLSCAASGFTVSSNYMSWVRQAPGKGLEWVSVIYSGGSTFYADSVKGRFTISRHNSKNTLYLQMNSLRAEDTAVYYCAREGYGMDVWGQGTTVTVSS
VL: not shown
B14: mAb10984 (antibody, V domains shown)
VH: EVQLVESGGGLVQPGGSLRLSCAASGLTVNRNYMSWVRQAPGKGLEWVSLIYSGGSTYYADSVKGRFTISRDNSKNTLYLQMNSLRLEDTAVYYCARGELGIPYGMDVWGQGTTVTVSS
VL: QSVLTQPPSVSAAPGQKVTISCSGSSSNIGNNYVSWYQQLPGTAPKLLIYDNNKRPSGIPDRFSGSKSGTSATLGITGLQTGDEADYYCGTWDSSLSAGVFGGGTKLTVLG
B15: mAb10934 (antibody, V domains shown)
VH: not shown
VL: DIQMTQSPSSLSASVGDRVTITCQASQDIWNYINWYQQKPGKAPKLLIYDASNLKTGVPSRFSGSGSGTDFTFTISSLQPEDIATYYCQQHDDLPPTFGQGTKVEIKR
B16: mAb10935 (antibody, V domains shown)
VH: EVQLVESGGGLVQPGGSLRLSCAASGFTVSSNYMSWVRQAPGKGLEWVSLIYSGGSTYYADSVKGRFTISRHNSKNTLYLQMNSLRSEDTAVYYCARVPLGDYYYGMDVWGQGTTVTVSS
VL: B15 VL with W30N, N31K, I33L, K55E, H91S, D93N, P96L, Q100G
B17: mAb10937 (antibody, V domains shown)
VH: QITLKESGPTLVKPTQTLTLTCTFSGFSLSTNVVGVGWIRQPPGKALEWLALIYWNDDKRYSPSLKSRLTITKDTSKNQVVLTMTNMDPVDTATYYCAHGPTGDYFDYWGQGTLVTVSS
VL: not shown
B18: mAb10998 (antibody, V domains shown)
VH: EVQLVESGGGLVHPGGSLRLSCAASGLTVSSNYMSWVRQAPGKGLEWVSVIYSGGSTYYADSVKGRFTISRHNSKNTLFLQMNSLRAEDTAVYYCARDRPITGTTLDVWGQGTTVTVSS
VL: DIQMTQSPSSLFASVGDRVTITCRASQSISSYLNWYQQKPGKAPKLLIYAASSLQSGVPSRFSGSGSGTDFTLTISSLQPEDFAFYYCQQTYSTPPITFGQGTRLEIKR
B19: mAb11006 (antibody, V domains shown)
VH: EVQLVESGGGLVQPGGSLRLSCAASGFIVSRNYMSWVRQAPGKGLEWVSVIYSGGSTFYADSVKGRFTISRHNSKNTLYLQMNSLKAEDTAVYYCARELRGYFDYWGQGTLVTVSS
VL: DIQLTQSPSFLSASVGDRVTITCWASQGISSYLAWYQQKPGKAPKLLIYAASTLQSGVPSRFSGSGSGTEFTLTISSLQPEDFATYYCQLLNSYPYTFGQGTKLEIKR
B20: mAb11008 (antibody, V domains shown)
VH: EVQLVESGGGLVQPGGSLRLSCAASGFTVSSNYMTWVRQAPGKGLEWVSVIYSGGSTFYADSVKGRFTISRHNSENTLYLQMNSLRAEDTAVYYCARDLAAAGTDYWGQGALVTVSS
VL: B19 VL with E81D, L90H, P95L
B21: mAb10915 (antibody, V domains shown)
VH: B19 VH with I28T, R31S, S35N, K86R, A87P, E98D, R100G
VL: not shown
B22: mAb10914 (antibody, V domains shown)
VH: EVQLVESGGGLVQPGGSLRLSCAASGLIVSRNYMIWVRQAPGKGLEWVSVIYSGGSTFYADSVKGRFTISRHNSKNTLYLQMNSLRAEDTAVYYCARDLGTGGMDVWGQGTTVTVSS
VL: B19 VL with L90Q, Y96L, Q100G, L104V
B23: mAb10921 (antibody, V domains shown)
VH: EVQLVESGGGLVQPGGSLRLSCAASGITVSSNYMSWVRQAPGKGLEWVSVIYSGGSTFYADSVKGRFTISRHNSKNTLYLQMNSLRAEDTAVYYCARERNFDAFDIWGQGTMVTVSS
VL: DIQMTQSPSSVSASVGDRVTITCRASQGISSWLAWYQQKPGKAPKLLIYAASSLQSGVPSRFSGSGSGTDFTLTISSLQPEDFATYYCQQANSFPLFTFGPGTKVDIKR

Key:
[1] = target: SARS-COV-2 RBD extracellular domain expressed with a C-terminal mouse IgG2a (SARS-COV-2 RBD-mFc) (SARS-CoV-2); assay: SPR, captured mAb, RBD-mFc in solution, 37 C
[2] = target: SARS-COV-2 RBD extracellular domain expressed with a C-terminal mouse IgG2a (SARS-CoV-2); assay: SPR Biacore, mAb captured via anti-hFc, 25 C

Binder | Kd [1] [pM] | koff [1] [s⁻¹] | kon [1] [M⁻¹ s⁻¹] | t½ [1] [h] | Kd [2] [pM] | koff [2] [s⁻¹] | kon [2] [M⁻¹ s⁻¹] | t½ [2] [h]
B1 | 399 | 0.000597 | 1.49e+06 | 0.322 |  |  |  | 
B2 |  |  |  |  | 88.6 | 8.06e-05 | 910000 | 2.39
B3 |  |  |  |  | 10.5 |  |  | 2.26
B4 |  |  |  |  | 8.88 |  |  | 8.02
B5 |  |  |  |  | 8.95 |  |  | 2
B6 | 274 | 0.00173 | 6.32e+06 | 0.112 |  |  |  | 
B7 | 17.7 | 6.75e-05 | 3.81e+06 | 2.85 |  |  |  | 
B8 |  |  |  |  | 78.9 |  |  | 2.14
B9 | 119 |  |  | 0.255 |  |  |  | 
B10 | 33.6 | 0.000185 | 5.53e+06 | 1.04 |  |  |  | 
B11 | 153 | 6.86e-05 | 448000 | 2.81 |  |  |  | 
B12 |  |  |  |  | 92.1 | 6.4e-05 | 695000 | 3.01
B13 |  |  |  |  | 4460 |  |  | 0.0783
B14 |  |  |  |  | 28.6 |  |  | 4.85
B15 | 21.6 |  |  | 0.657 |  |  |  | 
B16 | 86.9 | 0.000494 | 5.68e+06 | 0.39 |  |  |  | 
B17 | 12.9 | 5.74e-05 | 4.47e+06 | 3.35 |  |  |  | 
B18 |  |  |  |  | 2440 | 0.00358 | 1.47e+06 | 0.0533
B19 |  |  |  |  | 158 |  |  | 3.69
B20 |  |  |  |  | 492 | 0.000192 | 390000 | 1
B21 | 156 |  |  | 2.79 |  |  |  | 
B22 | 318 |  |  | 0.875 |  |  |  | 
B23 | 273 | 0.000125 | 458000 | 1.54 |  |  |  | 
